Reference: US20210301295A1

Target: 6×His tag-AVI tag-DPP4 fusion protein, site-directed biotinylated and labeled with color latex throu (human), P27487
Details: remark: other sources report otherwise

B1: Recombinant S1 protein of MERS-CoV, K9N5Q8 18-725 (ligand)
chain: YVDVGPDSVKSACIEVDIQQTFFDKTWPRPIDVSKADGIIYPQGRTYSNITITYQGLFPYQGDHGDMYVYSAGHATGTTPQKLFVANYSQDVKQFANGFVVRIGAAANSTGTVIISPSTSATIRKIYPAFMLGSSVGNFSDGKMGRFFNHTLVLLPDGCGTLLRAFYCILEPRSGNHCPAGNSYTSFATYHTPATDCSDGNYNRNASLNSFKEYFNLRNCTFMYTYNITEDEILEWFGITQTAQGVHLFSSRYVDLYGGNMFQFATLPVYDTIKYYSIIPHSIRSIQSDRKAWAAFYVYKLQPLTFLLDFSVDGYIRRAIDCGFNDLSQLHCSYESFDVESGVYSVSSFEAKPSGSVVEQAEGVECDFSPLLSGTPPQVYNFKRLVFTNCNYNLTKLLSLFSVNDFTCSQISPAAIASNCYSSLILDYFSYPLSMKSDLSVSSAGPISQFNYKQSFSNPTCLILATVPHNLTTITKPLKYSYINKCSRFLSDDRTEVPQLVNANQYSPCVSIVPSTVWEDGDYYRKQLSPLEGGGWLVASGSTVAMTEQLQMGFGITVQYGTDTNSVCPKLEFANDTKIASQLGNCVEYSLYGVSGRGVFQNCTAVGVRQQRFVYDAYQNLVGYYSDDGNYYCLRACVSVPVSVIYDKETKTHATLFGSVACEHISSTMSQYSRSTRSMLKRRDSTYGPLQTPVGCVLGLVNSSLFVE
- sensitivity of the test strip (lowest positive concentration): 10 nM
